Data on 4 molecules can be found in paper PMC8809517, “Cofactor-independent RNA editing by a synthetic S-type PPR protein”.

What all share (assay): high-throughput RNA pulldown from lysate on Ni-NTA beads; HRP: 50 mM Tris pH 8, 150 mM NaCl, 1 mM beta-mercaptoethanol, 50 ug/ml BSA, 3 ug/ml yeast RNA, 0.5% heparin; ITC and FP: Tris pH 8, 200 mM KCl, 5% glycerol; MST: 50 mM Tris pH 8, 200 mM NaCl, 1 mM DTT, BSA, heparin, 0.05% Tween 20
Details in all cases: tags: N-terminal His-eGFP

In series [1] the target is T1, GFP-9S library array, motif 4 ND N98E;D124I (synthetic construct, N98E;D124I).
T1 chain: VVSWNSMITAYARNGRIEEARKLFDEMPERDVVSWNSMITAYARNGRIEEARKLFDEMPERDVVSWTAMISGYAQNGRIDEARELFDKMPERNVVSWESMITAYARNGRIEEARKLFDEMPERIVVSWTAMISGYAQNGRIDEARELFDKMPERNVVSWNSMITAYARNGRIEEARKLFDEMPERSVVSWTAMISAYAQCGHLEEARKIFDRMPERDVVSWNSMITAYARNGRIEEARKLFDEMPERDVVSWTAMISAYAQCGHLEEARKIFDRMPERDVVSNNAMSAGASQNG

The target of series [2] is T2, GFP-9S library array, motif 4 ND N98I;D124R (synthetic construct, N98I;D124R).
T2 chain: T1 chain with E98I, I124R

The target of series [3] is T3, GFP-9S library array, motif 4 ND N98S;D124S (synthetic construct, N98S;D124S).
T3 chain: T1 chain with E98S, I124S

Series [4] addresses T4, GFP-9S library array, motif 4 ND N98D (synthetic construct, N98D).
T4 chain: T1 chain with E98D, I124D

In series [5] the target is T5, GFP-9S library array, motif 4 ND N98A;D124L (synthetic construct, N98A;D124L).
T5 chain: T1 chain with E98A, I124L

Substitutions are numbered along the chain they refer to.

Turning to AUUAGACGUGA (ssRNA) [Cy5-rpoA-G], the Kd – broadly, a measure of binding affinity in units of concentration – in series [1] (label: 5' Cy5) amounted to 3860 nM; in series [2] (label: 5' Cy5), 97.3 nM; in series [3] (label: 5' Cy5), 251 nM; in series [4] (label: 5' Cy5), 55.1 nM; in series [5] (label: 5' Cy5), 134 nM.

Turning to AUUACACGUGA (ssRNA) [Cy5-rpoA], the Kd was found to be 4240 nM in series [1] (label: 5' Cy5); 86.4 nM in series [2] (label: 5' Cy5); 112 nM in series [3] (label: 5' Cy5); 395 nM in series [4] (label: 5' Cy5); 129 nM in series [5] (label: 5' Cy5).

In the case of AUUAUACGUGA (ssRNA) [IR-rpoA-U], the Kd is 4070 nM in series [1] (label: 5' IRDye 800CW); 113 nM in series [2] (label: 5' IRDye 800CW); 69.8 nM in series [3] (label: 5' IRDye 800CW); 315 nM in series [4] (label: 5' IRDye 800CW); 255 nM in series [5] (label: 5' IRDye 800CW).

For AUUAAACGUGA (ssRNA) [IR-rpoA-A], the Kd in series [1] (label: 5' IRDye 800CW) turned out to be 5140 nM; in series [2] (label: 5' IRDye 800CW), 168 nM; in series [3] (label: 5' IRDye 800CW) it was 65.3 nM; in series [4] (label: 5' IRDye 800CW) it was 531 nM; in series [5] (label: 5' IRDye 800CW) it was 272 nM.
